# Source: paper PMC10031466 (The Journal of Biological Chemistry, 2023)
# B1: N-acetylglucosamine kinase (NagK) from Plesiomonas shigelloides (enzyme)
# chain: MYYGFDIGGTKIEFGAFDADLVRVARERVATPTESYAAFLDAIVTLVNNADAEFGVKGTVGIGIPGIADVETGKLLTSNIPAAMGHTLQRDLEERLQRPVKIENDANCFALSEAWDEDLRGEPSVLGLILGTGVGGGLIFNGKVHSGRANIAGEIGHTRLPYDALKLLGMENAPIFPCGCKNSGCIDNYLSGRGFEQLYDHYFSEKLSAPEIIAHYEQGERRAVQHVERFMELLAICLANIFTCLDPHVVVLGGGLSNFELIYQELPKRLPAHLLHVAKLPKIIKARHGDAGGVRGAAFLNL
# notes: N-acetylglucosamine kinase NagK of Plesiomonas shigelloides, codon-optimized nagK gene in pOPINS3C; also called PsNagK; P. shigelloides NagK; source: E. coli BL21 (DE3), purified (HisTrap, Superdex 200 size exclusion); not shown: polyhistidine, N-terminal, kept; SUMO, N-terminal, kept
# Target: the molecule itself
# Assay: crystal structure; microbatch crystallization of His-SUMO tagged P. shigelloides NagK (5 mg/ml), Morpheus I screen with matrix microseeding; apo structure PDB 7P7I, 2 protein monomers in the a.u.
protein,measurement,value
B1,stoichiometry N,2
